The results in this text go back to PMC11839083 (bioRxiv, 2025).

This series concerns the molecule itself. As to the kind of experiment: cryo-EM structure.

B1: C1-GS4 (Aae NtrC1 residues 121–387 with GSGSLGQYL at the C-terminus) (other)
chain: LRKENELLRREKDLKEEEYVFESPKMKEILEKIKKISCAECPVLITGESGVGKEVVARLIHKLSDRSKEPFVALNVASIPRDIFEAELFGYEKGAFTGAVSSKEGFFELADGGTLFLDEIGELSLEAQAKLLRVIESGKFYRLGGRKEIEVNVRILAATNRNIKELVKEGKFREDLYYRLGVIEIEIPPLRERKEDIIPLANHFLKKFSRKYAKEVEGFTKSAQELLLSYPWYGNVRELKNVIERAVLFSEGKFIDRGELSCLVNSKGSGSLGQYL
As for B1, the binding result is reported as “binds”.
